Test [1] deals with T1, C-terminally FLAG-tagged human Gas6 recombinant protein (hGas6-F) (human, UniProt Q14393 31-678, gamma-carboxylated glutamic acid residues in the Gla domain (producer cells co-express rat VKOR and human GGCX); positions not given).
T1 construct: also called human Gas6-F; human Gas6 protein
T1 sequence: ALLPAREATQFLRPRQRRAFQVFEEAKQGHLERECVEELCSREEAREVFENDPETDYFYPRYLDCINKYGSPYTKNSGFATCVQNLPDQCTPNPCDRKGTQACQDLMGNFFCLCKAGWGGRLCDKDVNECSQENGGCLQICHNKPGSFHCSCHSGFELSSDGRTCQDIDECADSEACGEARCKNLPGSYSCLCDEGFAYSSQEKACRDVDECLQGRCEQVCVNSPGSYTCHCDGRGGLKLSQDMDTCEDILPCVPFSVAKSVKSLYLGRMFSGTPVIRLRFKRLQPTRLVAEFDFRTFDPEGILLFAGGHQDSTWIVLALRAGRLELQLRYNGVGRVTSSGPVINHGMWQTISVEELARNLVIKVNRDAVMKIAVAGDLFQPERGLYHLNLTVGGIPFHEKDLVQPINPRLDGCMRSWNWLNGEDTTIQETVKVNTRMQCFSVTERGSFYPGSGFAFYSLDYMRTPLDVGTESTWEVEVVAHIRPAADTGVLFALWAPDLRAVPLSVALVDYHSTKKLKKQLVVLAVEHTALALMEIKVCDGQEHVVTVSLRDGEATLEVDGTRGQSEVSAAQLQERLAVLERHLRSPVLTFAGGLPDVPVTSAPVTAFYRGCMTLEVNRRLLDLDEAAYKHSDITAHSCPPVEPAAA
The experiment in a line: ELISA, hGas6-F captured by anti-FLAG, anti-human IgG-HRP. As to the method: First, 2 μg/mL anti-FLAG antibody [Monoclonal ANTI-FLAG M2 antibody produced in mouse (manufactured by Sigma-Aldrich Co. LLC) diluted with PBS (manufactured by Nacalai Tesque, Inc.)] was dispensed at 50 μL/well to a 96-well plate for ELISA (manufactured by Nalge Nunc International), and the plate was left standing overnight at 4° C. for adsorption. After removal of the immobilization solution, 1% BSA-PBS (manufactured by Nacalai Tesque, Inc.) was added thereto at 300 μL/well, and the plate was left standing at room temperature for 1 hour for blocking and washed five times with Tween 20-PBS (manufactured by Wako Pure Chemical Industries Ltd.).
In order to reduce the backgrounds of measurement values, the diluted secondary antibody solution was mixed with 50 μg/mL of an anti-DNP mouse IgG1 antibody and incubated at room temperature for 1 hour for use.
Background: In an ELISA, binding on a coated surface is turned into a signal by an enzyme label.

The target in test [2] is T1, C-terminally FLAG-tagged human Gas6 …. Nature of the test: SPR Biacore T100, captured antibody, Gas6 analyte, first test. (In general: Surface plasmon resonance follows binding to a sensor surface in real time, without labels.)
Test [3] shares this target. Nature of the test: SPR Biacore T100, captured antibody, Gas6 analyte, first test; reference line A-01 printed again at the head of the LV5 HV-series block (r24), same as r7. As to the method:
(§1) An anti-human IgG antibody was immobilized on a CM5 sensor chip (manufactured by GE Healthcare Japan Corp.) using Human Antibody Capture Kit (manufactured by GE Healthcare Japan Corp.) according to the attached manual. Each test antibody adjusted to 1 μg/mL was added for 10 seconds at a flow rate of 10 μL/min to flow cells. […] The measurement was performed by the […] method. The obtained sensorgram was analyzed using Bia Evaluation Software (manufactured by GE Healthcare Japan Corp.), and the kinetic constant of each antibody was calculated.

Test [4] has the same target. The experiment in a line: competitive ELISA, inhibition of hGas6-F binding to immobilised hAxl-hFc.
The target is the same in test [5]. The experiment in a line: SPR Biacore T100, captured antibody, Gas6 analyte, retest. As to the method: as §1
In this retest, unlike the test mentioned above, the number of antibodies to be measured and variations in the concentration of the analyte were decreased, and the assay was conducted for a short time (within several hours), instead of sufficiently leaving standing the analyte added to the vial. […] This minimizes the adsorption of the analyte to the vial and permits more accurate calculation of ka and KD values than that in the test mentioned above.

These results are taken from patent publication US20180339041A1 (Kyowa Kirin, published 2018).

As usually defined, the EC50 is the concentration needed to bring the measured effect to its halfway point. Usually Kd stands for the equilibrium constant for the complex coming apart. What is called koff is the first-order rate constant of dissociation. As usually defined, the kon is the rate constant with which the complex forms. In general, IC50 refers to the midpoint of a concentration-inhibition curve.

B1: KM5320 chimeric antibody (antibody, V domains shown)
VH: QIQLVQSGPELKKPGETVKISCKASGYTFTNYGMNWVKQAPGKGLKWMGWINTETGEPTYSDDFKGRFAFSLETSATTAYLQINNLRNEDMATYFCAREDGYYGTLDYWGQGTSVTVSS
VL: SIVMTQTPKFLLVSAGDRVTITCKASQSVSNDVAWYQQKPGQSPKVLIYYASNRYTGVPDRFTGSGYGTDFTFTISTVQAEDLAVYFCQQDYSSPWTFGGGTKLEIK
notes: also called KM5320 chimera; A-01
Take B1: the EC50 in test [1] is 0.0113 µg/mL. Further, in test [2], the Kd was under 1870 pM, the dissociation rate constant (koff) turned out to be 0.000156 s⁻¹ and the kon was over 83700 M⁻¹ s⁻¹. Further, the kon in test [3] was over 83700 M⁻¹ s⁻¹. In test [4], the IC50 turned out to be 0.0218 µg/mL. Also, in test [5], the Kd is 730 pM, the koff amounted to 0.000135 s⁻¹ and the on-rate constant (kon) worked out at 186000 M⁻¹ s⁻¹.
